The source of these data is article PMC10987677 (The EMBO Journal, 2024).

The target in this experiment is T1, IFT54^CH (IFT54 residues 1-137) (human, UniProt Q8TDR0 1-137).
T1 construct: IFT54 (IFT-B subunit), human, CH domain, residues 1-137; also called IFT54 CH domain; source: baculovirus system, purified (IgG Sepharose, released by TEV protease); not shown: ZZ, N-terminal, cleaved
T1 sequence (looked up): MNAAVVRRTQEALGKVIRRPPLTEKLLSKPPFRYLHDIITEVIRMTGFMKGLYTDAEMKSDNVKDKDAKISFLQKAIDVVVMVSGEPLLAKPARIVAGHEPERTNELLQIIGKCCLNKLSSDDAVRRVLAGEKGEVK
Put plainly: pull-down; ZZ-SNAP-GST-WDR60^355-449 immobilized on IgG Sepharose 6; purified IFT54^CH at 4.6 µM flowed over in wash buffer (30 mM HEPES pH 7.4, 150 mM KCl, 1 mM EGTA, 1 mM DTT, 10% glycerol); TEV elution, SDS-PAGE, Sypro Red. The conditions noted are these: both partners purified.

B1: ZZ-SNAP-GST-WDR60^355-449 (domain or fragment, human, UniProt Q8WVS4 355-449, looked up)
chain: IEKEETDLENARADAYTASCEDDFEDYEDDFEVCDGDDDESSNEPESREKLEELPLAQKKEIQEIQRAINAENERIGELSLKLFQKRGRTEFEKE
notes: WDR60/DYNC2I1, human, residues 355-449 of the N-terminal extension; released by TEV protease afterwards for SDS-PAGE; source: baculovirus system, immobilized on IgG Sepharose 6 resin and washed; not shown: ZZ, N-terminal, kept; SNAP, N-terminal, kept; GST, N-terminal, kept
Turning to B1, the binding result was “binds”.
